Measured values reported in patent publication US20110008345A1 (GlaxoSmithKline, published 2011).
Changes are numbered by the printed parent chain. Like-named read-outs stand apart in the source and are kept apart here. Blank lines part the entries; values can stand above or below the binder they belong to.

Key:
[1] = molecular target: T1, recombinant Sf21-expressed human IL-5 (human, UniProt P05113 20-134); experiment: SPR
[2] = molecular target: T2, recombinant E. coli-expressed human IL-13 (human, UniProt P35225 35-146); experiment: ELISA
T2 construct: made and purified at GSK; also called Interleukin-13; rhIL-13

[3] = molecular target: T3, recombinant E. coli-expressed human IL-4 (human, UniProt P05112 25-153); experiment: ELISA
T3 construct: made and purified at GSK; also called Interleukin-4; rhIL-4
T3 sequence: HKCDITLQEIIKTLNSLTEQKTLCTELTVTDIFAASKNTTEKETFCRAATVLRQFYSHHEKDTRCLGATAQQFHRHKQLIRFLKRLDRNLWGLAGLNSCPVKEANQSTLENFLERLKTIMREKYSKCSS

[4] = molecular target: recombinant E. coli-expressed human IL-18 (human, UniProt Q14116 37-193); experiment: SPR
[5] = molecular target: T2, recombinant E. coli-expressed human …; experiment: SPR exp 1
[6] = molecular target: T3, recombinant E. coli-expressed human IL-4; experiment: SPR exp 1
[7] = molecular target: T4, recombinant E. coli-expressed cynomolgus IL-13 (cynomolgus, UniProt Q0PW92 21-132); experiment: cell-based or functional assay
[8] = molecular target: T2, recombinant E. coli-expressed human …; experiment: cell-based or functional assay
[9] = molecular target: T4, recombinant E. coli-expressed …; experiment: SPR
[10] = molecular target: T2, recombinant E. coli-expressed human …; experiment: ELISA, IL-13 binding to IL13Ralpha2/Fc
[11] = molecular target: T2, recombinant E. coli-expressed human …; experiment: SPR exp 2
[12] = molecular target: T3, recombinant E. coli-expressed human IL-4; experiment: SPR exp 2
[13] = molecular target: T5, HEL (Hen Egg Lysozyme) (hen, UniProt P00698 19-147); experiment: ELISA
T5 construct: also called hen egg white lysozyme

[14] = molecular target: T6, RNAse A (UniProt P61823 27-150); experiment: ELISA
T6 sequence (looked up): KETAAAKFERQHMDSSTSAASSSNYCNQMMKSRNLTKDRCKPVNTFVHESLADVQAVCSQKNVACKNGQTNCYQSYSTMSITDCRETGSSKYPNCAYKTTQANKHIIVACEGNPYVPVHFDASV

[15] = molecular target: recombinant human TNF-alpha (human, UniProt P01375 77-233); experiment: ELISA, supernatant
[16] = molecular target: T3, recombinant E. coli-expressed human IL-4; experiment: ELISA, supernatant
[17] = molecular target: T2, recombinant E. coli-expressed human …; experiment: SPR stoichiometry
[18] = molecular target: T2, recombinant E. coli-expressed human …; experiment: SPR exp 2; remark: listed apart in the source
[19] = molecular target: T2, recombinant E. coli-expressed human …; experiment: SPR
[20] = molecular target: T2, recombinant E. coli-expressed human …; experiment: SPR exp 3
[21] = molecular target: T2, recombinant E. coli-expressed human …; experiment: SPR, purified
[22] = molecular target: T2, recombinant E. coli-expressed human …; experiment: cell-based or functional assay; remark: listed apart in the source
[23] = molecular target: T7, recombinant E. coli-expressed cynomolgus IL-4 (cynomolgus, UniProt P79339 25-153); experiment: SPR
T7 construct: also called cyno IL-4
T7 sequence (looked up): T3 sequence with E26K, V29I, F33L

[24] = molecular target: T4, recombinant E. coli-expressed …; experiment: SPR; remark: listed apart in the source
[25] = molecular target: T2, recombinant E. coli-expressed human …; experiment: SPR; remark: listed apart in the source
[26] = molecular target: T2, recombinant E. coli-expressed human …; experiment: SPR; remark: listed apart in the source
[27] = molecular target: T2, recombinant E. coli-expressed human …; experiment: SPR, purified; remark: listed apart in the source
[28] = molecular target: T2, recombinant E. coli-expressed human …; experiment: SPR exp 1; remark: listed apart in the source
[29] = molecular target: T2, recombinant E. coli-expressed human …; experiment: SPR; remark: listed apart in the source
[30] = molecular target: T4, recombinant E. coli-expressed …; experiment: SPR; remark: listed apart in the source
[31] = molecular target: T2, recombinant E. coli-expressed human …; experiment: SPR exp 1; remark: listed apart in the source
[32] = molecular target: T3, recombinant E. coli-expressed human IL-4; experiment: SPR exp 1; remark: listed apart in the source
[33] = molecular target: T1, recombinant Sf21-expressed human IL-5; experiment: ELISA
[34] = molecular target: T2, recombinant E. coli-expressed human …; experiment: SPR, no IL-4 bound
[35] = molecular target: T3, recombinant E. coli-expressed human IL-4; experiment: SPR
[36] = molecular target: T3, recombinant E. coli-expressed human IL-4; experiment: SPR, positive dissociation
[37] = molecular target: T3, recombinant E. coli-expressed human IL-4; experiment: SPR, purified

T5 sequence (P00698 19-147): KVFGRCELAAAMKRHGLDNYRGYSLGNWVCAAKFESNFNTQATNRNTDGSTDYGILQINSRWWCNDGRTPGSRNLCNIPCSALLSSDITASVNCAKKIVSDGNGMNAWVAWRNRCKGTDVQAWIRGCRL

B1: Mepolizumab (Anti-human IL-5 monoclonal antibody) (antibody, human IgG1, kappa, V domains shown)
VH: QVTLRESGPALVKPTQTLTLTCTVSGFSLTSYSVHWVRQPPGKGLEWLGVIWASGGTDYNSALMSRLSISKDTSRNQVVLTMTNMDPVDTATYYCARDPPSSLLRLDYWGRGTLVTVSS
VL: DIVMTQSPDSLAVSLGERATINCKSSQSLLNSGNQKNYLAWYQQKPGQPPKLLIYGASTRESGVPDRFSGSGSGTDFTLTISSLQAEDVAVYYCQNVHSFPFTFGGGTKLEIKR
notes: also called IL-5 mAb; anti-human IL5 mAb
Kd [1]: 0.34 nM
binding result [2]: no binding
binding result [3]: no binding

B2: Anti-human IL-18 (humanised) monoclonal antibody (antibody, human IgG1, kappa, V domains shown)
VH: QVQLVQSGAEVKKPGASVKVSCKVSGEISTGYYFHWVRQAPGKGLEWMGRIDPEDDSTKYAERFKDRVTMTEDTSTDTAYMELSSLRSEDTAVYYCTTWRIYRDSSGRPFYVMDAWGQGTLVTVSS
VL: DIQMTQSPSSVSASVGDRVTITCLASEDIYTYLTWYQQKPGKAPKLLIYGANKLQDGVPSRFSGSGSGTDYTLTISSLQPEDFATYYCLQGSKFPLTFGQGTKLEIKR
notes: also called Anti-human IL-18 mAb
Kd [4]: 0.035 nM

B3: PascoL-ELQLE-474 (bispecific antibody, human IgG1, kappa)
heavy: not shown
light: DIVLTQSPSSLSASVGDRVTITCKASQSVDYDGDSYMNWYQQKPGKAPKLLIYAASNLESGIPSRFSGSGSGTDFTFTISSLQPEDIATYYCQQSNEDPPTFGQGTKVEIKRTVAAPSVFIFPPSDEQLKSGTASVVCLLNNFYPREAKVQWKVDNALQSGNSQESVTEQDSKDSTYSLSSTLTLSKADYEKHKVYACEVTHQGLSSPVTKSFNRGECELQLEESCAEAQDGELDGGSGVQLLESGGGLVQPGGSLRLSCAASGFTFAWYDMGWVRQAPGKGLEWVSSIDWHGEVTYYADSVKGRFTISRDNSKNTLYLQMNSLRAEDTAVYYCATAEDEPGYDYWGQGTLVTVSS
binding result [2]: binds
binding result [3]: binds

B4: PascoH-TVAAPS-616 (bispecific antibody, human IgG1, kappa)
heavy: not shown
light: DIVLTQSPSSLSASVGDRVTITCKASQSVDYDGDSYMNWYQQKPGKAPKLLIYAASNLESGIPSRFSGSGSGTDFTFTISSLQPEDIATYYCQQSNEDPPTFGQGTKVEIKRTVAAPSVFIFPPSDEQLKSGTASVVCLLNNFYPREAKVQWKVDNALQSGNSQESVTEQDSKDSTYSLSSTLTLSKADYEKHKVYACEVTHQGLSSPVTKSFNRGEC
Kd [5]: 0.0497 nM
Kd [6]: 0.003 nM
Mean ND50 (TF-1) [7]: 14.5 nM
Mean ND50 (TF-1) [8]: 0.722 nM
Kd [9]: 9.8 nM
koff [9]: 0.00451 s⁻¹
kon [9]: 460000 M⁻¹ s⁻¹
IC50 [10]: 6.17 nM
Kd [11]: 0.056 nM
Kd [12]: 0.005 nM

B5: BPC1816 (bispecific antibody, human IgG1, kappa)
heavy: not shown
light: B4 light
notes: also called Anti IL-4 heavy Chain-GS-NARV
binding result [13]: binds
binding result [3]: binds

B9: Anti-human IL-13 monoclonal antibody (also known as 586) (antibody, human IgG1, kappa)
heavy: not shown
light: DIVMTQSPLSLPVTPGEPASISCRSSQNIVHINGNTYLEWYLQKPGQSPRLLIYKISDRFSGVPDRFSGSGSGTDFTLKISRVEADDVGIYYCFQGSHVPWTFGQGTKLEIKRTVAAPSVFIFPPSDEQLKSGTASVVCLLNNFYPREAKVQWKVDNALQSGNSQESVTEQDSKDSTYSLSSTLTLSKADYEKHKVYACEVTHQGLSSPVTKSFNRGEC
notes: also called Anti-human IL-13 mAb; anti-IL13 mAb
Kd [5]: 0.28 nM
Stoichiometry [17]: 1.8
Kd [9]: 0.119 nM
koff [9]: 6.55e-05 s⁻¹
kon [9]: 550000 M⁻¹ s⁻¹
Kd [18]: 0.67 nM
koff [18]: 0.000611 s⁻¹
Kd [19]: 0.38 nM
Kd [20]: 0.547 nM
Kd [21]: 0.41 nM
Mean IC50 (whole blood phospho-STAT6) [22]: 1.47 nM
binding result [23]: no binding
Kd [24]: 0.222 nM
koff [24]: 0.000105 s⁻¹
kon [24]: 474000 M⁻¹ s⁻¹
Kd [25]: 0.38 nM
Kd [26]: 0.41 nM
IC50 [10]: 6.43 nM
Kd [27]: 0.43 nM
Kd [28]: 0.57 nM
koff [28]: 0.00049 s⁻¹
kon [28]: 860000 M⁻¹ s⁻¹
Kd [29]: 0.377 nM
koff [29]: 0.000378 s⁻¹
kon [29]: 1e+06 M⁻¹ s⁻¹
Kd [30]: 0.171 nM
koff [30]: 8.22e-05 s⁻¹
kon [30]: 479000 M⁻¹ s⁻¹
Kd [31]: 0.28 nM
binding result [32]: no binding (tested: 256 nM)
binding result [33]: no binding
Kd [34]: 0.366 nM
koff [34]: 0.000368 s⁻¹
kon [34]: 1.01e+06 M⁻¹ s⁻¹

B10: 586H-TVAAPS-147 (bispecific antibody, human IgG1, kappa)
heavy: not shown
light: B9 light
Kd [19]: 0.56 nM
koff [35]: 6.69e-07 s⁻¹
kon [35]: 66200 M⁻¹ s⁻¹
Kd [36]: 0.011 nM

B11: 586H-TVAAPS-154 (bispecific antibody, human IgG1, kappa)
heavy: not shown
light: B9 light
Kd [19]: 0.56 nM
Kd [27]: 0.41 nM
Kd [37]: 0.49 nM
koff [35]: 1.15e-07 s⁻¹
kon [35]: 64400 M⁻¹ s⁻¹
Kd [36]: 0.002 nM

Second part, the binder after the results:

binding result [14]: binds
binding result [3]: binds
B6: BPC1809 (bispecific antibody, human IgG1, kappa)
heavy: not shown
light: B4 light
notes: also called Anti IL-4 heavy Chain-GS-anti RNAse A camelidVHH

binding result [15]: binds
binding result [16]: binds
B7: BPC1823 (bispecific antibody, human IgG1, kappa)
heavy: not shown
light: B4 light
notes: also called Anti IL-4 Heavy Chain-GS-anti TNF-a adnectin

binding result [15]: binds
binding result [16]: binds
B8: BPC1822 (bispecific antibody, human IgG1, kappa)
heavy: not shown
light: B4 light
